# Laboratory results taken from publication PMC314469, “Protein Interaction Networks by Proteome Peptide Scanning” (PLoS Biology, 2004).
# T1: Myo5 SH3 (MYO5_YEAST), Q04439
# T1 chain: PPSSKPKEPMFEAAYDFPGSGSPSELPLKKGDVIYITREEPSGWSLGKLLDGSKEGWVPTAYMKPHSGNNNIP
# Biological target: T1, Myo5 SH3 (MYO5_YEAST), Q04439
# Assay: SPOT array
row,Binder,"normalised SPOT signal, Boehringer light units (BLU); mean over the file's lines of this peptide"
1,QPQHLPPPPPPRAQ [YOR329C 661-674],76200
2,REFEFIIPVFPVIS [YDL233W 197-210],163
3,SPFSLFIPTIPATT [YNL043C 79-92],152
4,SFVHLTEPSQPLSD [YOR032C 362-375],99.7
5,RFHVFSEPILPSVA [YOR160W 693-706],158
6,SPFTFLFPFLPTII [YER017C 223-236],366
7,RLWLYAAPKRPKTF [YMR156C 129-142],845
8,SFVGFPKPLLPRNH [YHR082C 909-922],205
9,QPAQLQEPQEPLST [YMR148W 78-91],126
10,QLRSLFKPFGPILN [YBR212W 375-388],370
11,SLFPLKTPISPGTS [YOR106W 114-127],239
12,SPKFLNSPDLPERT [YDL225W 441-454],183
13,SFRELWQPVDPSRE [YLR301W 124-137],97.3
14,SPLSWSGPLTPPTF [YNL243W 594-607],168
15,RLFDLVKPKNPKFS [YLR086W 763-776],441
16,SETSHHSPSAPFQR [YLL016W 216-229],257
17,REVDLPIPAQPGPP [YDR236C 34-47],114
18,SPKPFSKPQEPVKA [YCR088W 389-402],359
19,QPTNFQYPPPPFGQ [YNL124W 379-392],224
20,SFDYLFHPFVPSTI [YPR039W 3-16],23.1

row,Binder,"normalised SPOT signal, Boehringer light units (BLU); mean over the file's lines of this peptide"
1,SPKKHVSPSRPPSV [YAL028W 272-285],1430
2,SPKKLASPRTPNAN [YKR077W 157-170],276
3,SFTPFNRPSDPSNG [YPL066W 70-83],208
4,SAENLIQPTAPIRD [YIR029W 44-57],56.4
5,SLTSLPPPPPPQFS [YPL014W 217-230],7260
6,SLLIHSLPRKPLLM [YGL104C 357-370],314
7,QPQAYHLPGNPYST [YNL278W 921-934],187
8,SLAVYNIPLFPDDP [YLL002W 276-289],91.7
9,RPPSHSAPYIPRSS [YDR132C 184-197],47400
10,RLNSFAPPPNPYAT [YDL195W 847-860],274
11,QLVTLISPYDPNFK [YJR119C 479-492],178
12,SLVKFSSPMTPLLE [YHR072W 246-259],249
13,SENRLRTPLKPLVN [YGL021W 219-232],272
14,RPSKFFHPPIPHIP [YOR235W 5-18],777
15,SATGWLKPAVPIQW [YGL065C 374-387],94.6
16,SLISMETPEQPHQQ [YAL047C 546-559],147
17,RLLALFIPALPFII [YEL065W 193-206],265
18,SANNYPFPQQPNGM [YNL124W 356-369],79.6
19,SENYLVKPTIPGTT [YDL035C 918-931],61.5
20,SLSALVGPVIPHTI [YMR177W 252-265],28.4

row,Binder,"normalised SPOT signal, Boehringer light units (BLU); mean over the file's lines of this peptide"
1,SASTMAAPVHPQQQ [YMR002W 21-34],164
2,RLSLLRSPKAPDAH [YGL156W 915-928],442
3,REASLDIPYKPIIA [YFL011W 32-45],176
4,SELTFIAPTQPVST [YPL101W 254-267],110
5,SELYYEGPETPTPS [YPL186C 118-131],50.5
6,SLDNFYNPLGPEDR [YNR012W 89-102],143
7,RLQKLDDPKSPYQS [YDL205C 162-175],127
8,RPQWLSYPEQPLNS [YBL088C 912-925],241
9,REDAHEDPVSPKAG [YOL082W 127-140],145
10,SFRKLASPSNPNFF [YMR036C 409-422],209
11,SAYYLGLPVTPEDM [YOL057W 181-194],215
12,RAAGMDVPIIPGIM [YGL125W 205-218],98.2
13,QPAQFMPPQDPAAA [YIL109C 25-38],134
14,SFTRMPLPTPPIEG [YGL235W 82-95],287
15,SAFPYVFPLPPWIP [YFL006W 181-194],13000
16,SLQQFYNPESPIQP [YOR155C 390-403],131
17,RLTNFEVPSLPTFH [YIL037C 447-460],319
18,SPNDHSDPSSPSNR [YNR014W 177-190],76.1
